Residue numbers refer to the chain shown, from its start. In names and notes the source's numbering stands. Like-named read-outs stand apart in the source and are kept apart here.
B1: 5Hg1-5Lg2 human Alya IgG1 conjugated to McMMAF (antibody, V domains shown)
VH: QVQLVQSGAEVKKPGASVKVSCKASGYTFTDYWMHWVRQAPGQGLEWMGAIDTSDSYTSYNQKFKGRVTMTRDTSTSTVYMELSSLRSEDTAVYYCARDYGNFYYYAMDYWGQGTLVTVSS
VL: QAVVTQEPSLTVSPGGTVTLTCRSSTGAVTTSNYANWFQQKPGQAPRTLIYGTNNRAPWTPARFSGSLLGGKAALTLLGAQPEDEAEYYCALWYSNHWVFGGGTKLTVL
modifications: McMMAF on the engineered cysteines 239iCys and S442C (EU numbering) of the heavy constant region
notes: Antibody-drug conjugate; human IgG1 Alya constant
B2: 5Hg2-5Lg1 human Alya IgG1 conjugated to McMMAF (antibody, V domains shown)
VH: B1 VH with G44R, M70I, T76A, V79A
VL: B1 VL with L78S
modifications: McMMAF on the engineered cysteines 239iCys and S442C (EU numbering) of the heavy constant region
notes: as for B1
B3: 5Hg2-5Lg3 human Alya IgG1 conjugated to McMMAF (antibody, V domains shown)
VH: B1 VH with G44R, M70I, T76A, V79A
VL: QTVVTQEPSFSVSPGGTVTLTCRSSTGAVTTSNYANWYQQTPGQAPRTLIYGTNNRAPGVPDRFSGSILGNKAALTITGAQADDESDYYCALWYSNHWVFGGGTKLTVL
modifications: McMMAF on the engineered cysteines 239iCys and S442C (EU numbering) of the heavy constant region
notes: as for B1
B4: C0120904 human Alya IgG1 conjugated to McMMAF (antibody, V domains shown)
VH: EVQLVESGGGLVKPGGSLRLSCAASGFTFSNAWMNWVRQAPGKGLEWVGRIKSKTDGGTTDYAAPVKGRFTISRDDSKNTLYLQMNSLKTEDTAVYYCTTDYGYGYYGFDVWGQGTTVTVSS
VL: SYELTQPPSVSVSPGQTATISCSGNKLGDGYVSWYQQKPGQSPVLVIYQDSKRPSGIPQRYSGSNSGNTATLTISGTQAIDEADYYCQAWDSSTVVFGGGTKVTVL
modifications: McMMAF on the engineered cysteines 239iCys and S442C (EU numbering) of the heavy constant region
notes: as for B1
B5: C0120910 human Alya IgG1 conjugated to McMMAF (antibody, V domains shown)
VH: QVQLVESGGGVVQPGRSLRLSCEASEFTFSNYAMHWVRQAPDKGLEWVAGILYDGATAHYADSVKGRFTISRDNSKNTLYLQINSLRAEDTAVYYCARAHYYDYWSGLSFEYWGRGTLVTVSS
VL: QSVLTQPPSASVSPGQTASIPCSGDDLGDKYIYWYQQKPGQSPVLVIYQDSRRPPGIPERFSGSNSGNTATLTISGTQPMDEADYYCQTWDTSSASAVFGGGTKVTVL
modifications: McMMAF on the engineered cysteines 239iCys and S442C (EU numbering) of the heavy constant region
notes: as for B1
B6: C0120904 (antibody, V domains shown)
VH: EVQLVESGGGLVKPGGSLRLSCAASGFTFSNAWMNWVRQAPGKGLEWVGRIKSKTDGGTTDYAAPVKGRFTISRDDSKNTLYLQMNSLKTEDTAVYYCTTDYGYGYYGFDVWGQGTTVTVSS
VL: B4 VL
modifications: 239iCys and S442C (EU numbering) in the constant region
notes: purified, unconjugated; also called C0120904 human Alya IgG1 (unconjugated)
B7: C0120910 (antibody, V domains shown)
VH: B5 VH
VL: B5 VL
modifications: 239iCys and S442C (EU numbering) in the constant region
notes: purified, unconjugated; also called C0120910 human Alya IgG1 (unconjugated)
B8: C0120913 (antibody, V domains shown)
VH: QVQLVQSGAEVKKPGESLKISCKGSGYSFTSYWVGWVRQMPGKGLEWMGIIYPGDSDARYGPSFQGQVTISADKSINTAYLQWNSLKASDTATYYCARLGDGAYYYYLDVWGRGTMVTVSS
VL: SYELTQPPSVSESPGRTVTISCSGSSGSIASNFVHWYQQRPGSAPTTVIYEDDQRPSGVPDRFSGSIDSSSNSASLTISGLKTEDEADYYCQSYDNNDHAVFGGGTKLTVL
modifications: 239iCys and S442C (EU numbering) in the constant region
notes: purified, unconjugated; also called C0120913 human Alya IgG1 (unconjugated)
B9: C0120919 (antibody, V domains shown)
VH: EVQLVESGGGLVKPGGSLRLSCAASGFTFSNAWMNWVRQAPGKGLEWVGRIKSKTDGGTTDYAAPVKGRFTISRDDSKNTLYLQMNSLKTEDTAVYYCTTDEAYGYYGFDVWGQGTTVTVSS
VL: QSALTQPPSVSVSSGQTASITCSGDKLGDKYASWYQQKPGQSPVLVIYQDTKRPSEIPERFSGSNSGNTATLTISGTQAMDEADYYCQAWDSSLVFGGGTKVTVL
modifications: 239iCys and S442C (EU numbering) in the constant region
notes: purified, unconjugated; also called C0120919 human Alya IgG1 (unconjugated)

Columns and labels:
[1] = biological target: T1, human SEMA4A expressed on cells (UniProt ID Q9H3S1, isoform 1) (human, UniProt Q9H3S1 33-761); experiment: cell-based or functional assay
T1 sequence: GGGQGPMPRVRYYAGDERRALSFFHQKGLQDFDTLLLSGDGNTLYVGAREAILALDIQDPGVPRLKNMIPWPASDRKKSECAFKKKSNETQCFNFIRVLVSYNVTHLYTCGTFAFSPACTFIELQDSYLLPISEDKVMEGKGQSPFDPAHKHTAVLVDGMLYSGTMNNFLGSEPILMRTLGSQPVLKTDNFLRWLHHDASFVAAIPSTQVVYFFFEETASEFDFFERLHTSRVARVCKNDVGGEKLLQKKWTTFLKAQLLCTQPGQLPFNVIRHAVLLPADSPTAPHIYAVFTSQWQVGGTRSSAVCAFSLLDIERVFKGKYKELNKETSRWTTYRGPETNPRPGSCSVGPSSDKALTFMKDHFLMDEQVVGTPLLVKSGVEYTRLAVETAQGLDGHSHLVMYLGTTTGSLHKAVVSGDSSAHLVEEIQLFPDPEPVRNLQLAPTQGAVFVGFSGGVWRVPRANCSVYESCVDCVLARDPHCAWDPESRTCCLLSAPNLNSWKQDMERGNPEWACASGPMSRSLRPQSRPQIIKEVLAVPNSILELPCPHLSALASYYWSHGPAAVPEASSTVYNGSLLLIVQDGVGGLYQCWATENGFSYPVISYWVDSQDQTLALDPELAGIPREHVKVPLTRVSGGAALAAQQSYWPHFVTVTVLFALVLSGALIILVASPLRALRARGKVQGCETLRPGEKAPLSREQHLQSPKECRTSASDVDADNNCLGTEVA

[2] = biological target: T2, human SEMA4B expressed on expi293 cells (human, UniProt Q9NPR2 44-837); experiment: Mirrorball direct binding, dilution series on expi293 cells transiently transfected with human SEMA4B, anti-human Alexa Fluor 647
T2 construct: whole, on cells
T2 sequence (looked up): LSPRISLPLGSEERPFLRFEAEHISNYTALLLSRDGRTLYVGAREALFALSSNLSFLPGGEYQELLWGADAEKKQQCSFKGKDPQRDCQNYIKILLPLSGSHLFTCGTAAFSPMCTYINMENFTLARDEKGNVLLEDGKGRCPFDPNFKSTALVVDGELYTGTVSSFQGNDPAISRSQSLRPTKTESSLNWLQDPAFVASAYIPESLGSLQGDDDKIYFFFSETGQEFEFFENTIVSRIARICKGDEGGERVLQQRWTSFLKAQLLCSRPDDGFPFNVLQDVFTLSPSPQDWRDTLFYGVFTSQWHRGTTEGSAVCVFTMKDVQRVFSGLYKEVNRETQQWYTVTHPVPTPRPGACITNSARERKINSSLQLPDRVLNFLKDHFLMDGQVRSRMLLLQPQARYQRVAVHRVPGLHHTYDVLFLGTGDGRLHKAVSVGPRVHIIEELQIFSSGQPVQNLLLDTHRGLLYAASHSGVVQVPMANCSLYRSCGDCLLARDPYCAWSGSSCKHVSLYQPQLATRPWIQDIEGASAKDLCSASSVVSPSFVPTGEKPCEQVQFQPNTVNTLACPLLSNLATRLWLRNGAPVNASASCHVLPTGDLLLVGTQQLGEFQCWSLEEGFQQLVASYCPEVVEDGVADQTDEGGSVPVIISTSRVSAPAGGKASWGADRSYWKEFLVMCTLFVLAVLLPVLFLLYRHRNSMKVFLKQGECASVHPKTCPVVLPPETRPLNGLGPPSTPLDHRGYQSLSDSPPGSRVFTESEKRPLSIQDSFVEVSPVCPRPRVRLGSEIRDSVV
Procedure: To determine the specificity profile of each purified human Alya IgG1 conjugated to McMMAF, a dilution series was tested for binding to human SEMA4A, human SEMA4B and mock transfected cells (transient transfections set up in expi 293 cells.) The three assays employed methods described in section 2.3, using the appropriate cells and substituting the un-purified scFv periplasmic preparation with the human Alya IgG1 conjugated to McMMAF. Data was analysed as Count x median mean intensity (x FLU).

[3] = biological target: T1, human SEMA4A expressed on cells …; experiment: cell-based or functional assay; remark: listed apart in the source
[4] = biological target: T1, human SEMA4A expressed on cells …; experiment: cell-based or functional assay; remark: listed apart in the source
[5] = biological target: T3, mouse SEMA4A expressed on expi293 cells (UniProt ID Q62178) (mouse, UniProt Q62178 33-760); experiment: Mirrorball direct binding, dilution series on expi293 cells transiently transfected with mouse SEMA4A, anti-human Alexa Fluor 647
T3 construct: Transient transfection in expi293 cells
T3 sequence: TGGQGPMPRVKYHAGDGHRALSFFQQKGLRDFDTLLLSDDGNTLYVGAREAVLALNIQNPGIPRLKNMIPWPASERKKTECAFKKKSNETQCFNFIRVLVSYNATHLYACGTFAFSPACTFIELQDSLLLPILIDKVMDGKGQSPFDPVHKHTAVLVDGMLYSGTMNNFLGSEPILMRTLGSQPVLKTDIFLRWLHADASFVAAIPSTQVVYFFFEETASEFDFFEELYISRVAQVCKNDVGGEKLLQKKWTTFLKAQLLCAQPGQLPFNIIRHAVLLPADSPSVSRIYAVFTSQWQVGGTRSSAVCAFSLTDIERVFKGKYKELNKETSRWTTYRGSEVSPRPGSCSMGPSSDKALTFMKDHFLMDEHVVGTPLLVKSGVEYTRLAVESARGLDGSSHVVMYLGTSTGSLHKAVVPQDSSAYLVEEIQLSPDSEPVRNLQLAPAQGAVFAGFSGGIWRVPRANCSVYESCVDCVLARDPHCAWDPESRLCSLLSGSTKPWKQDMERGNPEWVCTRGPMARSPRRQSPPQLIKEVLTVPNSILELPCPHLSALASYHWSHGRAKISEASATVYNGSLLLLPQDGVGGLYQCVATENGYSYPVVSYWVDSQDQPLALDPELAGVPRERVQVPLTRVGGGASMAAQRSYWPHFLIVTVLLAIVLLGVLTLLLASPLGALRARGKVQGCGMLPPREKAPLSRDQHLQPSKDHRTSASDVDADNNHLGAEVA
Description: (§1) Hits from the primary screening were re-formatted into the human Alya IgG1 vector and re-expressed and purified as described in section 4.1. In addition, a single clone was identified that contained an Asparagine deamidation motif (Asn Gly) within its VHCDR2. This potential sequence liability was de-risked by synthesising de novo two clonal variant VH genes (Asn Ala and Gln Gly) and cloning these sequences into the human Alya IgG1 expression vector. To determine the specificity profile of each purified human Alya IgG1, a dilution series was tested for binding to human SEMA4A, mouse SEMA4A, cyno SEMA4A, human SEMA4B and mock transfected cells (transient transfections set up in expi 293 cells.) The five assays employed methods described in section 2.3, using the appropriate cells and substituting the un-purified scFv periplasmic preparation with the recombinant human Alya IgG1 dilution series. Data was analysed as Count x median mean intensity (x FLU).

[6] = biological target: T2, human SEMA4B expressed on expi293 cells; experiment: Mirrorball direct binding, dilution series on expi293 cells transiently transfected with human SEMA4B, anti-human Alexa Fluor 647; remark: listed apart in the source
Description: as §1

| Binder | binding result [2] | Average KARPAS 25 IC50 [pM], cell kill [3] [pM] | Average MM1.S IC50 [pM], cell kill [3] [pM] | Average NCI-H929 IC50 [pM], cell kill [3] [pM] | binding result [5] | also measured |
| --- | --- | --- | --- | --- | --- | --- |
| B1 | no binding (tested: log (M) -8 (1e-8 M)) | 317 | 15.8 | 59.4 |  | EC50 (nM), Fab-pHast internalisation into NCI-H929 [1]: 0.75 nM; Fold-Change at 6 hours (10 nM), Fab-pHast internalisation [1]: 150 fold |
| B2 | no binding (tested: log (M) -8 (1e-8 M)) | 228 | 11.8 | 33.6 |  | EC50 (nM), Fab-pHast internalisation into NCI-H929 [1]: 0.62 nM; Fold-Change at 6 hours (10 nM), Fab-pHast internalisation [1]: 144 fold |
| B3 | no binding (tested: log (M) -8 (1e-8 M)) | 316 | 102 | 863 |  |  |
| B4 | no binding (tested: log (M) -8 (1e-8 M)) |  |  |  |  | Average MM1.S IC50 [pM], cell kill [4]: 1490 pM; Average NCI-H929 IC50 [pM], cell kill [4]: 18100 pM |
| B5 | no binding (tested: log (M) -8 (1e-8 M)) |  |  |  |  | Average MM1.S IC50 [pM], cell kill [4]: 7490 pM; Average NCI-H929 IC50 [pM], cell kill [4]: 3990 pM |
| B6 |  |  |  |  | binds | binding result [6]: no binding (tested: log (M) -8 (1e-8 M)) |
| B7 |  |  |  |  | binds |  |
| B8 |  |  |  |  | binds |  |
| B9 |  |  |  |  | binds | binding result [6]: no binding (tested: log (M) -8 (1e-8 M)) |
